Consider 2 molecules from PMC4441847 (The Biochemical journal, 2015).

The target in the assay is Recombinant FEN-1 (pET-FEN-1) (human, UniProt P39748 1-380). Briefly: pull-down.
Recombinant FEN-1 (pET-FEN-1), sequence (P39748 whole entry): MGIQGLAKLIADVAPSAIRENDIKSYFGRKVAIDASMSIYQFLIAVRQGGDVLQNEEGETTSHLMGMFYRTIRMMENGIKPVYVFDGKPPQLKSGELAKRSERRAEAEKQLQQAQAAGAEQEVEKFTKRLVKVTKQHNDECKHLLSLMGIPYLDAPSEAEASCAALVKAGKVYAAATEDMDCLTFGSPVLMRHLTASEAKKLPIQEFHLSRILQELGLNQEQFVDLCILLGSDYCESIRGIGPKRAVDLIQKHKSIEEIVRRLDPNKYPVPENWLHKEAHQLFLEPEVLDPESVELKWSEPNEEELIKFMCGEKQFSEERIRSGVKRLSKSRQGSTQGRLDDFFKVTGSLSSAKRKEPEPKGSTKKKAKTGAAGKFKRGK

B1: GST-RECQ1 C-terminal domain (residues 592-649) (domain or fragment, human, UniProt P46063 592-649, looked up)
chain: KSTQNSFRAESSQTCHSEQGDKKMEEKNSGNFQKKAANMLQQSGSKNTGAKKRKIDDA
Turning to B1, the binding result was “binds”.

B2: GST-RECQ1 RQC domain (residues 418-592) (domain or fragment, human, UniProt P46063 418-592, looked up)
chain: YGFGDIFRISSMVVMENVGQQKLYEMVSYCQNISKCRRVLMAQHFDEVWNSEACNKMCDNCCKDSAFERKNITEYCRDLIKILKQAEELNEKLTPLKLIDSWMGKGAAKLRVAGVVAPTLPREDLEKIIAHFLIQQYLKEDYSFTAYATISYLKIGPKANLLNNEAHAITMQVTK
For B2, the binding result is “binds”.
